From patent US20200054723A1 (ALLAKOS, published 2020)
Changes are numbered by the printed parent chain. Values joined by “and” are separate entries in the source; they are usually repeats but may differ in a detail not shown here. Identical values can stand only once. Blank lines part the entries; values can stand above or below the binder they belong to.

What was measured:
[1] = target: T1, Siglec-8-Fc tagged protein (human Siglec-8 extracellular domain fused to an immunoglobulin Fc region) (human); test: BLI (Octet Red 384), Siglec-8-Fc on anti-human capture sensors, Fab in solution
T1 construct: also called Siglec-8 Fc fusion protein
T1 sequence (chain, as listed by the source limits assumed): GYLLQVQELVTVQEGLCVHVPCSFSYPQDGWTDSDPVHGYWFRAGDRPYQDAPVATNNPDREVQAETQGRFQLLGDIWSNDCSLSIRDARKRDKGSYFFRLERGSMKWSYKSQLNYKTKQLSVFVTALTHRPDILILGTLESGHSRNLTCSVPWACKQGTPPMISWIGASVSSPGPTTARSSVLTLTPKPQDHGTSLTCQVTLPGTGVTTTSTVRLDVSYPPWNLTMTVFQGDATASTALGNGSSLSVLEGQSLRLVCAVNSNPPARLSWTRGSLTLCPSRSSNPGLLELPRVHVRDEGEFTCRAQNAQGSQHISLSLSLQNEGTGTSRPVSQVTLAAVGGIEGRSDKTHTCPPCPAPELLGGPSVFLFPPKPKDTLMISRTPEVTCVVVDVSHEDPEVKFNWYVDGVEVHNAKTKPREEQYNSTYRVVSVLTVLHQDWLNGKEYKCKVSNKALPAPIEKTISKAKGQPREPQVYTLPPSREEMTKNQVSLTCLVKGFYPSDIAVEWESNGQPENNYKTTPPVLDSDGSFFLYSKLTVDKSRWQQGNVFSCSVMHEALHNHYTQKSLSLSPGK
Procedure: Antibody affinity determination was also carried out by bio-layer interferometry (ForteBio). Binding of mouse, chimeric and humanized anti-Siglec-8 antibody Fab fragments to human Siglec-8 protein was measured on a ForteBio Octet Red 384. The assay was conducted at 25° C., at an RPM of 1000 in assay buffer. […] Fab fragments (antibodies were digested with Thermo-Pierce immobilized papain per manufacturer's specifications) were diluted in assay buffer from 50 nM to 1.56 nM with 2× dilutions. The Siglec-8-Fc tagged protein was immobilized on Anti-Human-Capture sensors at 100 nM in assay buffer for 3 min to a change in nm of approximately 1.2. Two-minute associations were conducted, followed by 10-minute dissociations. Results were blanked with an empty reference AHC sensor, and analyzed in ForteBio analysis software with 1:1 global fit parameters.

[2] = target: T2, recombinant human Siglec-8 extracellular domain (ECD) (human, UniProt Q9NYZ4 17-363); test: ELISA, coated Siglec-8 ECD
T2 construct: extracellular domain; also called Siglec-8 ECD; full Siglec-8 ECD
T2 sequence (Q9NYZ4 17-363): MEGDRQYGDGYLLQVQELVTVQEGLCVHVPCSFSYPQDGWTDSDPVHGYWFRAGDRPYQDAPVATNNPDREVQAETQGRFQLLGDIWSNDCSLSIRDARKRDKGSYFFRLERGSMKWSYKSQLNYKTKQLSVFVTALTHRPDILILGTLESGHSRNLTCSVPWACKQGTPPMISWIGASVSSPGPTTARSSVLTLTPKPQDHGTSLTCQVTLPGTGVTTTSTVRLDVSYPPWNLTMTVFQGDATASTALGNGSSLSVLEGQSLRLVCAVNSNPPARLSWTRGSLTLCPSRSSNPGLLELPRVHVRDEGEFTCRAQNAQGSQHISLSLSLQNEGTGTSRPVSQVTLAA
Procedure: Binding of recombinant human Siglec-8 extracellular domain (ECD) by chimeric 2E2 and chimeric 2C4 IgG1K antibodies was measured by ELISA. […] Three-fold serial dilutions of a chimeric antibody (ch2E2 or ch2C4) or mouse antibody (m2E2 or m2C4) in 0.2% BSA/TBS (starting concentration was 5000 ng/mL) was added to each coated well. The plate was incubated for 2 hours at room temperature and the wells were subsequently washed before addition of goat-anti-human Fc peroxidase conjugate (1:10000 dilution) or anti-mouse Fc peroxidase conjugate (1:30000 dilution) diluted in 0.2% BSA/TBS solution. The plate was incubated for 45 minutes at room temperature, followed by washing and addition of 30 μL K-blue HRP substrate (SkyBio Ltd) to each well. After incubation at room temperature for 15 minutes, the reaction was stopped by adding 10 μL of Red Stop solution (SkyBio Ltd) to each well. The optical density or the experimental samples was read at 650 nm using the ELISA reader PHERAStar FS (BMG Labtech).
The fully humanized antibody heavy and light chains were combined and compared with the chimeric antibody to determine if replacing the 4 Å and canonical framework residues and interface residues was sufficient to successfully humanize 2E2. Expi293 cells were co-transfected with combinations of different humanized light chain vectors in association with different humanized heavy chain vectors. Siglec-8 antigen was used to measure antibody binding by ELISA as described in Example 1.

[3] = target: T3, Dimeric Siglec-8 (human Siglec-8 ECD protein) (human, UniProt Q9NYZ4 17-363); test: SPR (Biacore), antibody captured, dimeric Siglec-8 as analyte, 1:1 global fit (avidity)
T3 construct: extracellular domain; Analyte of the Biacore avidity assay
T3 sequence (Q9NYZ4 17-363): as above
Procedure: Antibody avidity determination was carried out by SPR analysis using a Biacore T200. Binding of human Siglec-8 ECD protein to mouse, chimeric and humanized anti-Siglec-8 antibodies was measured on a […]. The capture antibodies (goat-anti-human-Fc and goat-anti-mouse-Fc from Jackson Immunoresearch) were immobilized on a CM5 chip according to manufacturer's protocol (Biacore, GE). Flow-cell 1, 2 and 3 were immobilized with anti-human, and flow cell 4 with anti-mouse antibodies. The assay was conducted at 25° C., at a flow rate of […]. Assay buffer was 20 mM Tris-HCl pH 8.3, 150 mM Sodium Chloride, 0.05% Polysorbate 20, 10% glycerol, 0.1% BSA, made in ultrapure water. Dimeric Siglec-8 (impurities of monomeric and oligomeric Siglec-8 were removed by size-exclusion chromatography) was diluted in assay buffer from 15 nM to […] with 2× dilutions. Antibodies were captured to a change of approximately 120 RU. Six-minute high performance injections were conducted, followed by 120-minute dissociations. Flow cells were regenerated with 50 mM glycine pH 1.5. Results were double blanked with an empty reference cell and multiple assay buffer injections, and analyzed with 1:1 global fit parameters.

B2: RHE E-DKFmut (antibody, human IgG1, V domains shown)
VH: EVQLVESGGGLVQPGGSLRLSCAASGFSLTIYGAHWVRQAPGKGLEWVGVIWAGGSTNYNSALMSRFTISKDNSKNTVYLQMNSLRAEDTAVYYCARDGSSPYYYSMDYWGQGTTVTVSS
VL: EIVLTQSPATLSLSPGERATLSCSATSSVSYMHWFQQKPGQAPRLLIYSTSNLASGIPARFSGSGSGTDYTLTISSLEPEDFAVYYCQQRSSYPYTFGPGTKLDIK
notes: human IgG1/kappa
EC50 [2]: 1.4 nM

B3: HB2KA (antibody, human IgG1, V domains shown)
VH: QVQLQESGPGLVKPSETLSLTCTVSGFSLTIYGAHWVRQPPGKGLEWLGVIWAGGSTNYNSALMSRLSISKDNSKNQVSLKLSSVTAADTAVYYCARDGSSPYYYSMEYWGQGTLVTVSS
VL: B2 VL with Y70F, Y95F
notes: human IgG1/kappa
EC50 [2]: 0.051 nM

B4: HBcVK (antibody, human IgG1, V domains shown)
VH: B2 VH with A24V, V48L, F67L, T68S, D108E
VL: QIILTQSPAIMSASPGEKVSITCSATSSVSYMHWFQQKPGTSPKLWIYSTSNLASGVPVRFSGSGSGTSYSLTISRMEAEDAATYYCQQRSSYPFTFGSGTKLEIK
notes: human IgG1/kappa
EC50 [2]: 0.066 nM

B6: HA2KB (antibody, human IgG1, V domains shown)
VH: B3 VH with F27G, L29I, T30S, V37I, L48I, L67V, S68T, K71V, N73T, V78F
VL: B2 VL with V3I, L46W, I57V, Y95F
notes: human IgG1/kappa
EC50 [2]: 124 nM

B9: RHE S-GKD (antibody, human IgG1, V domains shown)
VH: B2 VH with S106G, D108E
VL: B2 VL with L46W, Y70F, Y95F
notes: human IgG1/kappa
EC50 [2]: 8.65 nM

B11: RHE S-GKB (antibody, human IgG1, V domains shown)
VH: B2 VH with S106G, D108E
VL: B2 VL with V3I, L46W, I57V, Y95F
notes: human IgG1/kappa
EC50 [2]: 627 nM

B13: RHE S-GKC (antibody, human IgG1, V domains shown)
VH: B2 VH with S106G, D108E
VL: B2 VL with V3I, Y70F, Y95F
notes: human IgG1/kappa
EC50 [2]: 173 nM

B16: HB2KG (antibody, V domains shown)
VH: B3 VH
VL: B2 VL with F35Y, Y70F, Y95F
notes: human IgG1/kappa
EC50 [2]: 0.227 nM

B18: HB2KC (antibody, human IgG1, V domains shown)
VH: B3 VH
VL: B2 VL with V3I, Y70F, Y95F
notes: human IgG1/kappa
EC50 [2]: 0.101 nM

B19: RHE S-G KFmut (antibody, V domains shown)
VH: B2 VH with S106G, D108E
VL: B2 VL
notes: human IgG1/kappa
EC50 [2]: 207 nM

B25: HAcVK (antibody, human IgG1, V domains shown)
VH: B2 VH with G49S, D108E
VL: B4 VL
notes: human IgG1/kappa
EC50 [2]: 0.067 nM

B27: RHE S-GKA (antibody, human IgG1, V domains shown)
VH: B2 VH with S106G, D108E
VL: B2 VL with Y70F, Y95F
notes: human IgG1/kappa
EC50 [2]: 50.6 nM

B28: HA2KFmut (antibody, human IgG1, V domains shown)
VH: B3 VH with F27G, L29I, T30S, V37I, L48I, L67V, S68T, K71V, N73T, V78F
VL: B2 VL
notes: human IgG1/kappa
EC50 [2]: 31.6 nM

Other lines, results leading:

Kd [1]: 0.536 nM
koff [1]: 0.000612 s⁻¹
kon [1]: 1.14e+06 M⁻¹ s⁻¹
B1: mouse 2E2 Fab fragment (Fab)
VH: QVQLKESGPGLVAPSQSLSITCTVSGFSLTIYGAHWVRQPPGKGLEWLGVIWAGGSTNYNSALMSRLSISKDNSKSQVFLKINSLQTDDTALYYCARDGSSPYYYSMEYWGQGTSVTVSS
light: QIILTQSPAIMSASPGEKVSITCSATSSVSYMHWFQQKPGTSPKLWIYSTSNLASGVPVRFSGSGSGTSYSLTISRMEAEDAATYYCQQRSSYPFTFGSGTKLEIKADAAPTVSIFPPSSEQLTSGGASVVCFLNNFYPKDINVKWKIDGSERQNGVLNSWTDQDSKDSTYSMSSTLTLTKDEYERHNSYTCEATHKTSTSPIVKSFNRNEC
notes: Fab made by papain digestion of the murine IgG1; also called murine 2E2 Fab

EC50 [2]: 0.027 nM
B5: cVHKB (antibody, human IgG1, V domains shown)
VH: B1 VH
VL: B2 VL with V3I, L46W, I57V, Y95F
notes: human IgG1/kappa

EC50 [2]: 0.091 nM
B7: RHE Y-VKF (antibody, human IgG1, V domains shown)
VH: B2 VH with D108E, Y109V
VL: B2 VL with Y95F
notes: human IgG1/kappa

EC50 [2]: 0.07 nM
B8: RHE Y-VKE (antibody, human IgG1, V domains shown)
VH: B2 VH with D108E, Y109V
VL: B2 VL with I57V, Y70F, Y95F
notes: human IgG1/kappa

EC50 [2]: 0.306 nM
B10: RHE Y-VKB (antibody, human IgG1, V domains shown)
VH: B2 VH with D108E, Y109V
VL: B2 VL with V3I, L46W, I57V, Y95F
notes: human IgG1/kappa

EC50 [2]: 18.6 nM
B12: RHE Triple-KA (antibody, human IgG1, V domains shown)
VH: B2 VH with S106G, Y109V
VL: B2 VL with Y70F, Y95F
notes: human IgG1/kappa

EC50 [2]: 8.81 nM
B14: RHE Y-VKG (antibody, human IgG1, V domains shown)
VH: B2 VH with D108E, Y109V
VL: B2 VL with F35Y, Y70F, Y95F
notes: human IgG1/kappa

EC50 [2]: 13.2 nM
B15: RHE Triple-KD (antibody, human IgG1, V domains shown)
VH: B2 VH with S106G, Y109V
VL: B2 VL with L46W, Y70F, Y95F
notes: human IgG1/kappa

EC50 [2]: 0.088 nM
B17: RHE Y-VKA (antibody, human IgG1, V domains shown)
VH: B2 VH with D108E, Y109V
VL: B2 VL with Y70F, Y95F
notes: human IgG1/kappa

EC50 [2]: 0.215 nM
B20: RHE Y-VKC (antibody, human IgG1, V domains shown)
VH: B2 VH with D108E, Y109V
VL: B2 VL with V3I, Y70F, Y95F
notes: human IgG1/kappa

EC50 [2]: 0.398 nM
B21: RHE Y-VKFmut (antibody, human IgG1, V domains shown)
VH: B2 VH with D108E, Y109V
VL: B2 VL
notes: human IgG1/kappa

EC50 [2]: 0.283 nM
B22: RHE Y-VKD (antibody, human IgG1, V domains shown)
VH: B2 VH with D108E, Y109V
VL: B2 VL with L46W, Y70F, Y95F
notes: human IgG1/kappa

EC50 [2]: 34.1 nM
B23: RHE Triple-KE (antibody, human IgG1, V domains shown)
VH: B2 VH with S106G, Y109V
VL: B2 VL with I57V, Y70F, Y95F
notes: human IgG1/kappa

EC50 [2]: 33.5 nM
B24: RHE S-GKG (antibody, human IgG1, V domains shown)
VH: B2 VH with S106G, D108E
VL: B2 VL with F35Y, Y70F, Y95F
notes: human IgG1/kappa

EC50 [2]: 3.28 nM
B26: RHE S-GKF (antibody, human IgG1, V domains shown)
VH: B2 VH with S106G, D108E
VL: B2 VL with Y95F
notes: human IgG1/kappa

EC50 [2]: 0.062 nM and 0.044 nM and 0.043 nM
Kd [3]: 0.016 nM
koff [3]: 1.32e-05 s⁻¹
kon [3]: 851000 M⁻¹ s⁻¹
B29: chimeric 2E2 antibody (antibody, human IgG1, kappa)
heavy: not shown
light: QIILTQSPAIMSASPGEKVSITCSATSSVSYMHWFQQKPGTSPKLWIYSTSNLASGVPVRFSGSGSGTSYSLTISRMEAEDAATYYCQQRSSYPFTFGSGTKLEIKRTVAAPSVFIFPPSDEQLKSGTASVVCLLNNFYPREAKVQWKVDNALQSGNSQESVTEQDSKDSTYSLSSTLTLSKADYEKHKVYACEVTHQGLSSPVTKSFNRGEC
notes: human IgG1/kappa; also called ch2E2; ch2E2 purified
